pKd: −log10 of the molar value.

Assay [1] has as its target human serum albumin (human) (UniProt P02768). Put plainly: SPR; Biacore; 500 resonance units of albumin coupled to a CM5 chip; GAlbudAb flowed in HBS-P+ buffer at 39 nM to 5 μM; KD by the 1:1 interaction model in BiaEval software.
The target in the next assay is rat serum albumin (rat) (UniProt P02770). The assay is described as above.
The target in assay [2] is cynomolgus monkey serum albumin (cynomolgus monkey) (UniProt A2V9Z4). Described as above.
Chain of UniProt A2V9Z4 (A2V9Z4 25-608): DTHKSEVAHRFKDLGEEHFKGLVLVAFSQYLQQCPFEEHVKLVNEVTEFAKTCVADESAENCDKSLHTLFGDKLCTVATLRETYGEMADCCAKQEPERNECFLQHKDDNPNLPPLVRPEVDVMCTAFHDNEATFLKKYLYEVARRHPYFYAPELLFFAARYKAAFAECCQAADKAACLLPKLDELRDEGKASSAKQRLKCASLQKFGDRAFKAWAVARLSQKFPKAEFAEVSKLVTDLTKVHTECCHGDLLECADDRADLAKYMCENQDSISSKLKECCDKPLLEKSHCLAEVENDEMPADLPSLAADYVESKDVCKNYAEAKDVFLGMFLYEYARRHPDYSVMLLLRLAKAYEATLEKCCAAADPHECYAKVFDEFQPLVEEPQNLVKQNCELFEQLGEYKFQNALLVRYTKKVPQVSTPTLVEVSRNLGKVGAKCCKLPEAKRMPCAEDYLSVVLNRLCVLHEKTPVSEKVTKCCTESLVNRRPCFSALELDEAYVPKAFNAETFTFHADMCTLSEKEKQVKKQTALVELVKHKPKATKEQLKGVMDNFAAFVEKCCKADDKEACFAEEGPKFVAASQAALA
Assay [3] has as its target human GLP-1 receptor (human) (UniProt P43220).
Chain of UniProt P43220 (P43220 24-463): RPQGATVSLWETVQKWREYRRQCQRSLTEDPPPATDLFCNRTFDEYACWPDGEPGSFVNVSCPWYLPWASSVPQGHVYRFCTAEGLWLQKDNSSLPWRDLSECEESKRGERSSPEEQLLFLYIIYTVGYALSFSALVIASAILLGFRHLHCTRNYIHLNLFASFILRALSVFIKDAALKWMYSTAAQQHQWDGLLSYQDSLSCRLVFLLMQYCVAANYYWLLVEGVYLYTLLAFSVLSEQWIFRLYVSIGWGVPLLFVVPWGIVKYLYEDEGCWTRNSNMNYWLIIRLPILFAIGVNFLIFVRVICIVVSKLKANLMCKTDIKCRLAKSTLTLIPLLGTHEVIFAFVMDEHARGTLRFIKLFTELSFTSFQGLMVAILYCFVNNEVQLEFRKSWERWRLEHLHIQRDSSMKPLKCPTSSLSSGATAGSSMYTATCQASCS

Chain of UniProt P02768 (P02768 25-609): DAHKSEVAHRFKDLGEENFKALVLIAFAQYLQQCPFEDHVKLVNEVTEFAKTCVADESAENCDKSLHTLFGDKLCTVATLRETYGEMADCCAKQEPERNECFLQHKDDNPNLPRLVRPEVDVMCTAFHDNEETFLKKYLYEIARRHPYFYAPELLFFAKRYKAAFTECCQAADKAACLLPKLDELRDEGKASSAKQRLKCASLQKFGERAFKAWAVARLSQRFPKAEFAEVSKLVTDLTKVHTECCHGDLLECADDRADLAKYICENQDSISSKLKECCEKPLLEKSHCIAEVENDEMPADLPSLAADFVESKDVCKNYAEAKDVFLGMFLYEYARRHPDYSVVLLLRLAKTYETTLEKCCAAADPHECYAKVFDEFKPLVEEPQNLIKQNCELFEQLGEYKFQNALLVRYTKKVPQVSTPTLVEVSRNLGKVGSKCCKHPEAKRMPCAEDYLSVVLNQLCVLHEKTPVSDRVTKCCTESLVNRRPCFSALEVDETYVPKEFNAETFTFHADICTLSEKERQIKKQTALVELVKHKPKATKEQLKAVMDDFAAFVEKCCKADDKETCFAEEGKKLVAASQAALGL
Chain of UniProt P02770 (P02770 25-608): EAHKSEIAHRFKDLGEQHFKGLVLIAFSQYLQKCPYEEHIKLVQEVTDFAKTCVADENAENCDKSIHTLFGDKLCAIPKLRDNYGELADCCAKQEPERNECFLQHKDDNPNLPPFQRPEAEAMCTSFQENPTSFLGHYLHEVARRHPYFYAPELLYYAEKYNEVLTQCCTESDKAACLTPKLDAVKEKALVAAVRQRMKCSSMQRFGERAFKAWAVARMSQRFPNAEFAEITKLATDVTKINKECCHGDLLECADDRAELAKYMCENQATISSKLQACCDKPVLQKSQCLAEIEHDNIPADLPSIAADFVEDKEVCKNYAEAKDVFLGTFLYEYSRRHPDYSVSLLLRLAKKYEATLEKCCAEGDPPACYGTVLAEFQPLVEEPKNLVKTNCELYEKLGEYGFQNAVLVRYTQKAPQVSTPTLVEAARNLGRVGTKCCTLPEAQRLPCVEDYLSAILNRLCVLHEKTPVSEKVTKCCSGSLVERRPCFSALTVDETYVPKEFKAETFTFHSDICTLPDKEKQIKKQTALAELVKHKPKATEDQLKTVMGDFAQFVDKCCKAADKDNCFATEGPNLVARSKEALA

Turning to “GAlbudAb, DPP-IV resistant GLP-1 (7–36, A8G) fused to the DOM7h-14 AlbudAb”, the figures for the pKd (in assay [1]; with rat serum albumin (rat); in assay [2]) were 6.84, 6.56 and 6.40, respectively. The same substance yielded a cAMP-driven luciferase reporter gene expression in CHO cells stably transfected with human GLP-1 receptor (EC50) in assay [3] of 0.1 nM.

Consider GLP-1 (7–36) peptide, for which, in assay [3], the cAMP-driven luciferase reporter gene expression in CHO cells stably transfected with human GLP-1 receptor (EC50) turned out to be 0.1 nM.

These data come from PMC3852957.
